Reference: patent US9809627B2, “Cyclized transthyretin peptide and methods of use therefor” (Wisconsin Alumni Research Foundation, priority 2014, dated 2017)
“Also recorded” adds a separate entry of the source. Where no end group is shown, it is not given here. [ ]: non-standard residue; d: D form.

Assays:
[1] = biological target: T1, Aβ (1-40) (Homo sapiens, UniProt P05067); test: Proteolytic fragmentation assay of Aβ with peptides (Proteinase K); format: binding; settings: 3:1 molar excess of peptides, detection by 4G8
T1 construct: Aβ (1-40) was purchased from Anaspec, Inc. (Fremont, Calif.) as lyophilized powder; purchased Anaspec, Inc. (Fremont, Calif.)
Method: (§1) Aβ (1-40) was purchased from Anaspec, Inc. (Fremont, Calif.) as lyophilized powder. For dynamic light scattering, ThT fluorescence assay, TEM, NTA measurement and filtration/sedimentation assay, Aβ was dissolved in 50% ACN, re-lyophilized, and reconstituted in 8M urea at 12 mg/mL. Aβ stock was then aliquoted, snap-frozen in ethanol with dry ice, and stored at −80° C. For PICUP and proteolytic fragmentation analysis, lyophilized Aβ was dissolved in prechilled hexafluoroisopropanol (HFIP, Acros Organics, Geel, Belgium), aliquoted, dried and stored at −20° C. as previously described (Cho et al., 2014). Aβ sample was prepared right before use by dissolving dried peptides in 50 mM NaOH and diluting into phosphate-buffered saline (PBSA) (10 mM Na2HPO4/NaH2PO4, 150 mM NaCL and 0.02% NaN3 (pH 7.4)) to 30 μM as previously described (Cho et al., 2014).
The proteolytic fragmentation assay of Aβ with peptides was performed as previously described in detail (Cho et al., 2014). Briefly, Aβ alone (20 μM) or with peptide (60 μM) was incubated for 24 hr at 37° C. Proteinase K (Promega, Madison, Wis.) was added to the samples at a final concentration of 0.5 μg/mL and samples were dotted onto a 0.45 μm nitrocellulose membrane (Pierce) after incubation for 0, 5, 10, 20, 30, 40, 50, 60, 90 and 120 min. Membranes were then reacted with monoclonal antibodies against Aβ (6E10, Covance, against Aβ (3-8) and 4G8 against Aβ (18-22)) and visualized.

[2] = biological target: T1, Aβ (1-40); test: Filtration/sedimentation assay of Aβ aggregation; format: biochemical
Method: as §1
Aβ alone (30 μM) or with CG3 (3 μM) was prepared in PBSA and incubated for 24 hr at 37° C. For filtration, 175 μL of sample was filtered through 0.45 μm filter. For sedimentation, 100 μL of sample was transferred onto a separate tube and centrifuged for 30 min at 19,500 ref. The supernatant (80%) was removed. Concentrations of untreated, filtered, and centrifuged samples were measured by BCA assay (Pierce).

[3] = biological target: T1, Aβ (1-40); test: Nanoparticle tracking (NTA) of Aβ aggregates; format: biochemical; settings: 28 μM Aβ, 10:1 Aβ:peptide molar ratio
Method: as §1
NTA measurements were taken with a Nanosight LM10 (Nanosight, Amesbury, U.K.) equipped with a 405 nm laser as previously described (Yang et al., 2013). Aβ alone (28 μM) or with CG3 (2.8 μM) were prepared in PBSA and incubated for 5 hr at 37° C. Three 60 s video were taken for each sample.

“SKVVT^DPPRYTIAALLSPYSYSQ [CG3] (chain 1 SKVVT[dP]PRYTIAALLSPYSYSQ; chain 2 SKVVT[dP]PRYTIAALLSPYSYSQ; also: head-to-tail to a chain's N/C-terminus) [cyclic 22-mer of TTR residues 104-123 grafted onto DPro-Pro template]” was tested, and the “effect on Aβ degradation by protease” value [1] was “Aβ degradation was delayed; also recorded: most effective in inhibiting degradation”, the “effect on fraction of Aβ aggregates removable by filtration or sedimentation” value [2] was “reduce the fraction of Aβ aggregates that can be removed by filtration or sedimentation” and the “fraction of Aβ-peptide mixture filterable through 0.45 μm filter” value ([2]; 30 μM Aβ, 10:1 Aβ excess, at either 0 or 24 hours, 37° C.) was “about 90%”. For the same substance, the “fraction of Aβ-peptide mixture remaining in solution after centrifugation” value ([2]; after 24 hours, centrifuged 30 min, supernatant) was 91% and the “size of particles detected” value [3] was “very large (microns)”.
